According to paper PMC8333309, “Mechanism of LolCDE as a molecular extruder of bacterial triacylated lipoproteins” (Nature Communications, 2021):

Substrate: Nc1ncnc2c1ncn2[C@@H]1O[C@H](COP(=O)(O)OP(=O)(O)OP(=O)(O)O)[C@@H](O)[C@H]1O
Experiment: colorimetric phosphate-release ATPase assay
Type: biochemical, Escherichia coli
Conditions: LolCDE in POPG nanodiscs, MgCl2, 25 mM Tris pH 8, 150 mM NaCl, 37 °C, basal activity, no lipoprotein added

B1: LolCDE (Escherichia coli K-12) (protein)
chain: MNKILLQCDNLCKRYQEGSVQTDVLHNVSFSVGEGEMMAIVGSSGSGKSTLLHLLGGLDTPTSGDVIFNGQPMSKLSSAAKAELRNQKLGFIYQFHHLLPDFTALENVAMPLLIGKKKPAEINSRALEMLKAVGLDHRANHRPSELSGGERQRVAIARALVNNPRLVLADEPTGNLDARNADSIFQLLGELNRLQGTAFLVVTHDLQLAKRMSRQLEMRDGRLTAELSLMGAE
notes: co-expressed in E. coli BL21(DE3); purified in DDM, reconstituted into MSP1D1/POPG nanodiscs; co-purifies with lipoprotein; with Lipoprotein-releasing system transmembrane protein LolC; Lipoprotein-releasing system transmembrane protein LolE
Km: 0.19 ± 0.05 mM
